# From patent US10220090B2, “BCMA Antigen binding proteins” (Amgen Inc., priority 2012, dated 2019)
# T1: human BCMA (Homo sapiens, UniProt Q02223, N81S)
# T1 construct: expressed in transfected cells
# T1 sequence (Q02223 1-184 N81S): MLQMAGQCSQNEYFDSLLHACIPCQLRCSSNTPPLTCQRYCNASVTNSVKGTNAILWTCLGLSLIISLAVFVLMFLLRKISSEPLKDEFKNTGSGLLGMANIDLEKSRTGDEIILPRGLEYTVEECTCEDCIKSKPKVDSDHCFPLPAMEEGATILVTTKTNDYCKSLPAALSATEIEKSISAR
# T2: BCMA on H929 cells (Homo sapiens, UniProt Q02223, N81S)
# T2 construct: host or cells: H929
# T2 sequence (Q02223 1-184 N81S): T1 sequence (Q02223 1-184 N81S)
# T3: TACI (Homo sapiens, UniProt O14836)
# T3 construct: expressed in transfected cells
# T3 sequence (O14836 1-293): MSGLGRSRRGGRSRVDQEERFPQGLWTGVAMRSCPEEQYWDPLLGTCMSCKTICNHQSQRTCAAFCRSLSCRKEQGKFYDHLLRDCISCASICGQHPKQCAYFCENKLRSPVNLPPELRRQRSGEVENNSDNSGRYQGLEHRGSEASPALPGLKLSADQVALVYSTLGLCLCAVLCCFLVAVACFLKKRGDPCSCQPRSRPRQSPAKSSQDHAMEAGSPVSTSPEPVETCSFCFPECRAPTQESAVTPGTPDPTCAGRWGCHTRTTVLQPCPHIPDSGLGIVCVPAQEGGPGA
# B1: Ab-8: anti-huBCMA mAb of the second campaign, Vh SEQ ID NO:220, Vl SEQ ID NO:254 (antibody, V domains shown)
# VH: EVQLLESGGALVQPGGSLRLSCAASGFTFSSYAMNWVRQAPGKGLEWVSAISVGGDTYYADSVKGRFTISRDNSKNTLYLQMNSLRAEDTAVYYCAKDQVTMVRGVWYYYGLDVWGQGTTVTVSS
# VL: DIVMIQSPLSLPVTPGEPASISCRSSQSLLHSNGNNYLDWYLQKPGQSPHLLISLGSNRTSGVPDRFSGSGSGTDFTLKISRVEAEDVGVYYCMQALQPPRRFGQGTKLEIKR
# B2: Ab-4: fully human anti-huBCMA mAb, Vh SEQ ID NO:212, Vl SEQ ID NO:246 (antibody, V domains shown)
# VH: QVQLVQSGAEVKKPGASVKVSCKASGYTFTGHYIHWVRQAPGQGLEWMGWIYPNSGGTNYAQKFQGRVTMTRDTSISTAYMELSRLRSDDSAVYYCAREGMVTGDYYYYRMDVWGQGTTVIVSS
# VL: QPVLTQPPSASASLGASVTLTCSLSSGYSNYKVDWYQQRPGKGPRFVMRVGIGGIVGSKGDGIPDRFSVLGSGLNRYLTIKNIQEEDESDFHCGADHGSGNNFVYVFGTGTKVTVLG
# B3: Ab-6: anti-huBCMA mAb, Vh SEQ ID NO:216, Vl SEQ ID NO:250 (antibody, V domains shown)
# VH: QVQLVESGGGVVQPGRSLRLSCAASGFTFSSYGLHWVRQAPGKGLEWVALISYDGSNKYYADSVKGRFTISRDNSKNTLYLQMNSLRAEDTAVYYCWYSSSWTPLDYWGQGTLVTVSS
# VL: DIQMTQSPSSLSASVGDRVTITCRASQGIRNDLGWYQQKPGKAPKRLIYAASSLQSGVPSRFSGSGSGTEFTLTISSLQPEDFATYYCLQYYSYPLTFGGGTKVEIKR
# Legend:
# various cell lines = test: Cell viability of various cell lines exposed to free DM1; format: cell-based; conditions: control
# Procedure: The ADCs were tested for the ability to target and kill BCMA-expressing myeloma cells. The CellTiter-Glo® Luminescent Cell Viability Assay is a homogeneous method to determine the number of viable cells in culture based on quantitation of the ATP present, which signals the presence of metabolically active cells. The CellTiter-Glo® Assay is applicable to cytotoxicity assays (see http://www.promega.com/products/cell-health-assays/cell-viability-assays/celltiter_glo-luminescent-cell-viability-assay/for more information). The cell viability assay was used to assess the relative killing capacity of various ADCs on various multiple myeloma cell lines and B-cell lines. The protocol provided in the Cell Titer-Glo kit (Promega G7572) was followed. In short, 5×10^3 target cells in 90 ul RPMI 1640, 10% FBS were aliquoted into clear, flat bottom, white walled 96 well plates (Costar #3903). The ADCs were diluted into a 10× stock to create 500 nM maytansine drug equivalents. Each ADC was serially diluted in 2-fold dilutions in RPMI 1640, 10% FBS starting with 500 nM stock. […] Luminescence was read on an EnVision™ Multilabel reader (PerkinElmer) or Analyst HT plate reader (LJL Biosciences). The data was analyzed and graphed using GraphPad Prism™ to determine the relative efficacy of the ADCs on various cancer cell lines. […]
# [1] = target: [6xHistidine-SUMO]-huBCMA (SEQ ID NO:350) and its carboxy terminal clipped forms (Homo sapiens, UniProt Q02223); test: Size exclusion chromatography and LC/MS of antibody complexes with Sumo-huBCMA and clipped forms; format: binding; conditions: SEC and LC/MS; listed as 29C12
# [6xHistidine-SUMO]-huBCMA (SEQ ID NO:350) and its carboxy terminal clipped forms, sequence (Q02223 with tags, fused parts or gaps limits assumed): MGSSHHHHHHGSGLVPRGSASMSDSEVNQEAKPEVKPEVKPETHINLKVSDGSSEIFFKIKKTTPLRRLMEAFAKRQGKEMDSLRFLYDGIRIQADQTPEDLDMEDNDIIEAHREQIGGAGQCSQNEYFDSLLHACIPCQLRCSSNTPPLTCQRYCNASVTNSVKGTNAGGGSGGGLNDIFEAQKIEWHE
# Source text: To determine which forms of 6×His-SUMO-huBCMA were bound to the anti-huBCMA antibodies, the SEC fractions were isolated and analyzed. Carboxy-terminus fragments of the extracellular domain of human BCMA were generated as clipped forms from the rhuBCMA fusion protein (6×His::Sumo::huBCMA(aa 5-51)::GGS::G3::Avi) of SEQ ID NO:350, as shown in FIG. 45.
# A Superdex 200™ 10/30 cm SEC column (GE Healthcare Life Sciences) was used according to the manufacturer's recommendations and run in phosphate buffered saline (PBS). Incubations of antibody with excess levels of sumoBCMA were performed at room temperature for at least 30 minutes.
# (§1) A Superdex 200™ 10/30 cm SEC column (GE Healthcare Life Sciences) was used according to the manufacturer's recommended condision and run in phosphate buffered saline (PBS). Incubations of antibody with excess levels of sumoBCMA were performed at room temperature for at least 30 minutes.
# 5 ug of total proteins were reduced in 50 mM Tris/4 M guanidine/9 mM DTT, pH 8.0 at 55° C. for 15 min, and analyzed in Agilent LCTOF system using a Vydac C8 column, 2.1 mm ID×150 mm, […] particle size. […] TOF MS conditions included capillary voltage of 4000 V, drying gas flow at 10 L/min, dry gas temperature at 300° C., nebulizer gas flow at 40 L/min, and fragmentor voltage of 300 V. MS data was analyzed in Agilent MassHunter™ Qualitative Analysis program.
# [2] = target: T4, Sumo (cleaved from SumoBCMA) (Saccharomyces cerevisiae, UniProt Q12306); test: Size exclusion chromatography control with Sumo; format: binding; conditions: SEC control
# T4 construct: 6xHis (N)
# T4 sequence (Q12306 1-98 limits assumed): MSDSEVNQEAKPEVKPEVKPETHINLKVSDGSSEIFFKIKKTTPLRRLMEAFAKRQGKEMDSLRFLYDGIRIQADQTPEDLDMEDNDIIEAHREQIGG
# Procedure: as §1
# human BCMA = target: T1, human BCMA; test: FACS binding on cells transiently transfected to express full length BCMA
# Procedure: (§2) An important criterion is exquisite selectivity for wild-type human BCMA expressed on the surface of cells. FACS binding on cells transiently transfected to express full length BCMA, TACI, or BAFF-R was performed using standard techniques. Approximately 40×10^6 of the transiently-transfected target cells were resuspended in a staining solution (2% goat serum, 1% rabbit serum, 0.02% azide in PBS) and aliquoted into round-bottom, 96-well plate (Corning Incorp., Acton, Mass.) as per the experiment design. The cells were incubated at 4 degrees celsius for 30 minutes to block non-specific sites. The antibodies were titrated into the staining solution. The cells were rinsed in a rinse solution (PBS+0.02% azide) by resuspending the cells in 200 ul/well. The cells were centrifuged at 1500 rpm at 4 degrees celsius for 7 minutes. The rinse solution was removed and the rinse step was repeated. The cells were resuspended in the appropriate antibody solution (see the matrix in TABLE 4) at 30 ul/well and incubated at 4 degrees celsius for 30 minutes. […] For the mouse IgG1 negative control and the two mouse antibodies (1.183 and 1.288), the secondary reagent was an anti-mouse IgG-PE conjugate (BD Pharmingen Cat. 550589). The cells/antibodies were rinsed as described above to remove excess/unbound antibody. […] Samples were read at 532 nm wavelength on FACS. […]
# BCMA on H929 cells = target: T2, BCMA on H929 cells; test: FACS binding to native BCMA on H929 myeloma cells
# Procedure: Approximately 10 to 40×10^6 of H929 myeloma cells were resuspended in a staining solution (2% goat serum, 1% rabbit serum, 0.02% azide in PBS) and aliquoted into round-bottom, 96-well plate (Corning Incorp., Acton, Mass.) as per the experiment design. The cells were incubated at 4 degrees celsius for 30 minutes to block non-specific sites. The antibodies were titrated into the staining solution. The cells were rinsed in a rinse solution (PBS+0.02% azide) by resuspending the cells in 200 ul/well. The cells were centrifuged at 1500 rpm at 4 degrees celsius for 7 minutes. The rinse solution was removed and the rinse step was repeated. […] The cells/antibodies were rinsed as described above to remove excess/unbound antibody. After the last rinse, the cells were resuspended in 200 ul of rinse solution with a drop of staining solution added to keep the cells from aggregating.
# The antibodies were tested for binding to BCMA endogenously-expressed on a variety of cells, including the H929 cell line, which were developed from B-lymphocytes from a myeloma/plasmacytoma patient (ATCC, Manassa, Va.) using standard FACs techniques. […] The supernatants were removed and the cell pellets were resuspended in 0.2 mL/tube 4% paraformaldehyde in PBS and analyzed by flow cytometry
# TACI = target: T3, TACI; test: FACS binding on cells transiently transfected to express full length TACI
# Procedure: as §2
molecule,measurement,setting,value
COc1cc2cc(c1Cl)N(C)C(=O)C[C@H](OC(=O)[C@H](C)N(C)C(=O)CCS)[C@]1(C)O[C@H]1[C@H](C)[C@@H]1C[C@@](O)(NC(=O)O1)[C@H](OC)/C=C/C=C(\C)C2 [DM1],killing by free DM1,various cell lines,killed by free DM1
B1,binding to full-length and truncated fragments of human BCMA,[1],bound full-length and truncated forms of BCMA
same,binding to Sumo,[2],did not bind to Sumo
B2,BCMA (FACS binding),human BCMA,+ (A sample was considered positive for binding if the MFI was two times the negative control value)
same,binding to human BCMA on the surface of H929 myeloma cell line,BCMA on H929 cells,bound to human BCMA
B3,BCMA (FACS binding),human BCMA,+ (A sample was considered positive for binding if the MFI was two times the negative control value)
same,TACI (FACS binding),TACI,+ (A sample was considered positive for binding if the MFI was two times the negative control value)
